This note sets out measurements from US20250154272A1 (Astellas, published 2025).

Read-outs that look alike come from different tables or passages of the source.

The term EC50 (read off the curve) denotes the concentration at which the effect is half-maximal. As usually defined, the koff is a measure of how fast the partners let go of each other. By kon is commonly meant a measure of how fast the partners come together.

In test [1] the target is T1, human CLDN4 expressed on CHO-K1 cells (human, UniProt O14493 1-209).
T1 construct: whole, on cells; also called human CLDN4 expressing CHO-K1
T1 sequence (looked up): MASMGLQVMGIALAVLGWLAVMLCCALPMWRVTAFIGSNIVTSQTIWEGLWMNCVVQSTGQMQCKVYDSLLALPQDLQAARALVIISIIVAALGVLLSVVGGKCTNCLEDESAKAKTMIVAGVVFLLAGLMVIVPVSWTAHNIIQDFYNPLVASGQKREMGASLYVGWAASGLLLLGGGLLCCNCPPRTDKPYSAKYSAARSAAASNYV
Nature of the test: flow cytometry on human CLDN4 expressing CHO-K1, apparent KD. A general note: In flow cytometry, cells or beads pass a laser one at a time.

The target in test [2] is T2, human CD137-His tag protein (R&D Systems, 9220-4B) (human, UniProt Q07011 24-186).
T2 construct: Bought protein; not shown: His tag of the bought protein
Nature of the test: ELISA, human CD137-His tag protein immobilized on the plate, anti-human IgG Fc-HRP, A450-A570. Background: ELISA stands for enzyme-linked immunosorbent assay.

Test [3] addresses T3, human EpCAM-Myc-DDK expressed on CHO-K1 cells (human, UniProt P16422 24-314).
T3 construct: whole, on cells; also called EpCAM expressing cells; not shown: Myc-DDK tag of the ORIGENE construct
T3 sequence (looked up): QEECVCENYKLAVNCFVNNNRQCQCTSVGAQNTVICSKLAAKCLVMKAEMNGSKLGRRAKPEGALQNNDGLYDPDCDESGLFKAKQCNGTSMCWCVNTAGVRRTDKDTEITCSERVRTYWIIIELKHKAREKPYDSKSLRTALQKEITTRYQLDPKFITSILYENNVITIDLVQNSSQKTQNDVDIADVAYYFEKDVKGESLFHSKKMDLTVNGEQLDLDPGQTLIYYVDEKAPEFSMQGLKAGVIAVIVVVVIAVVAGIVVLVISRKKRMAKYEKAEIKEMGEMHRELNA
Nature of the test: flow cytometry of the clone supernatant on human EpCAM-Myc-DDK expressing CHO-K1 cells.

Test [4] deals with T4, human CLDN4-Myc-DDK expressed on CHO-K1 cells (human, UniProt O14493 1-209).
T4 construct: whole, on cells; also called human CLDN4-Myc-DDK expressing CHO-K1 cells; not shown: Myc-DDK tag of the ORIGENE construct
T4 sequence (looked up): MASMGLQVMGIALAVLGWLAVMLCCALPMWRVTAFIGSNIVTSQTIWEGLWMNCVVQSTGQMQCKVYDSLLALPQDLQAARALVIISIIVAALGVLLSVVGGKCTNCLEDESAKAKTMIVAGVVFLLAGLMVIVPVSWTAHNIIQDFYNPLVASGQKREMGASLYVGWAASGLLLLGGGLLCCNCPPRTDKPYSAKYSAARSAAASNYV
Description: binding experiment on human CLDN4-Myc-DDK expressing CHO-K1 cells.

Test [5] has as its target T2, human CD137-His tag protein (R&D …). Nature of the test: ELISA, human CD137-His tag protein immobilized on the plate, anti-human IgG Fc-HRP, A450-A570. This is another data set of the same source.
Test [6] has the same target. Description: SPR, Biacore T200, antibody captured on Protein A chip, CD137 as analyte.
In test [7] the target is T5, monkey CD137-His tag-3×FLAG tag fusion protein (monkey).
T5 construct: Residues 1-183 are the encoded extracellular region as stated; also called Monkey CD137-His-3 × FLAG
T5 chain: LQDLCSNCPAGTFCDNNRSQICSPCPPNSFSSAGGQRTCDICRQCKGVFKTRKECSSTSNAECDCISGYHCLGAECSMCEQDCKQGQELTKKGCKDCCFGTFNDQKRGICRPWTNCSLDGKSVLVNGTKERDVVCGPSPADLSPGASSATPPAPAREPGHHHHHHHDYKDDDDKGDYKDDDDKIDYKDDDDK
Described as above.

In test [8] the target is T2, human CD137-His tag protein (R&D …). Description: ELISA, human CD137-His tag protein immobilized on the plate, anti-human IgG Fc-HRP, A450-A570. This is another data set of the same source.
In test [9] the target is T6, human CD137-human Fc fusion protein (human, UniProt Q07011 24-186).
T6 construct: not shown: human IgG1 Fc of the pFUSE-hIgG1-Fc1 vector (InvivoGen, pfuse-hg1fc1)
Nature of the test: ELISA of the purified antibody on coated plates.

In test [10] the target is T7, monkey CD137-human Fc fusion protein (monkey; human, UniProt Q07011 24-186).
T7 construct: not shown: human IgG1 Fc of the pFUSE-hIgG1-Fc1 vector (InvivoGen, pfuse-hg1fc1)
T7 chain: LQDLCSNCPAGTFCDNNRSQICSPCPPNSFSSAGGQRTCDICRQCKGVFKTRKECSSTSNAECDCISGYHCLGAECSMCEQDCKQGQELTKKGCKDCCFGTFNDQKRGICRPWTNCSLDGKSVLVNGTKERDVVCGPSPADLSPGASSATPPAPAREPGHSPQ
Nature of the test: ELISA of the purified antibody on coated plates.

B1: humanized anti-CLDN4 (hKM3900) antibody (antibody, V domains shown)
VH: EVQLVQSGAEVKKPGASVKISCKASGYTFTDYYMNWVRQAPGQGLEWMGDVVPNNGVPTYNQKFKGRVTITADKSTSTAYMELRSLRSEDTAVYYCARPHYYYAGRSGAMDYWGQGTLVTVSS
VL: DIQLTQSPSSLSASVGDRVTITCTASSTVSSTYLHWYQQKPGKAPKLLIYSTSNLASGVPSRFSGSGSGTDYTLTISSLQPEDFATYYCHQYHRSPPTFGQGTKLEIKR
Turning to B1, the Kd in test [1] was found to be 10.8 nM. The binding result in [2] is listed as “no binding (tested: 1000 ng/mL)”.

B2: 3D11 antibody (antibody, V domains shown)
VH: QVQLGQSGPEVKKPGASVKVSCKASGYSFISYGISWVRQAPGQGLEWMGWSSVYNGNTNYVQKFQGRVTMTTDTSASTAYMELRSLRSDDAAVYYCARDSYSSGWSYYYSGMDVWGQGTTVTVSS
VL: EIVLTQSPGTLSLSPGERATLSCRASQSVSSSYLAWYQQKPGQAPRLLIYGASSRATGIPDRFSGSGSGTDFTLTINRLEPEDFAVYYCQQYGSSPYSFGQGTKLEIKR
notes: Purified from the hybridoma supernatant of a VelocImmune mouse: human variable regions with mouse constant regions (chimeric antibody); also called 3D11 clone
As to B2, the binding result in test [3] is listed as “no binding”; in test [4], “binds”.

B3: anti-CLDN4 (hKM3900)/anti-CD137 scFv bispecific antibody hKM3900_3-34-j6 (bispecific antibody, human IgG1, kappa, L234A L235A)
heavy: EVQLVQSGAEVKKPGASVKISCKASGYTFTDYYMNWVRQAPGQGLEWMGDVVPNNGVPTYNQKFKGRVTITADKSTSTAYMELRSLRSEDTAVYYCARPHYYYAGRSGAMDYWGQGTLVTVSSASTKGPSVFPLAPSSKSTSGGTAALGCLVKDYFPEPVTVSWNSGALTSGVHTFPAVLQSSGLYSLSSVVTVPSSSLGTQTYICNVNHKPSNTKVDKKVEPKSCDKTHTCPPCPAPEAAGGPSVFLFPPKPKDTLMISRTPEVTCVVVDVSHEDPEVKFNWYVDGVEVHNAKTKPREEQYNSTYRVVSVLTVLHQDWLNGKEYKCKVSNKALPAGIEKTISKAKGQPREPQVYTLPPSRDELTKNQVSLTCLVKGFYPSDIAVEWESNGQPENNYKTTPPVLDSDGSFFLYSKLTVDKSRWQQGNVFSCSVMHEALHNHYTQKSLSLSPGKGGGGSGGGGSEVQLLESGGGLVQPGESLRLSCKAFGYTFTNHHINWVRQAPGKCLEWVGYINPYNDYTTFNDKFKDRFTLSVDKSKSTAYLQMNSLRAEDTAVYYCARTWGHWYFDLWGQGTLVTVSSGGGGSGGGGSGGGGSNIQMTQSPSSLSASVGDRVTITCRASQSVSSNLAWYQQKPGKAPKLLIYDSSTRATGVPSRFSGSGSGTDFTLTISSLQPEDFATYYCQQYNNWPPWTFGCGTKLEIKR
light: DIQLTQSPSSLSASVGDRVTITCTASSTVSSTYLHWYQQKPGKAPKLLIYSTSNLASGVPSRFSGSGSGTDYTLTISSLQPEDFATYYCHQYHRSPPTFGQGTKLEIKRTVAAPSVFIFPPSDEQLKSGTASVVCLLNNFYPREAKVQWKVDNALQSGNSQESVTEQDSKDSTYSLSSTLTLSKADYEKHKVYACEVTHQGLSSPVTKSFNRGEC
notes: The heavy chain entry holds the hKM3900 heavy chain (L234A, L235A, P331G), the linker and the 3-34-j6 scFv
For the molecule B3, the results for the “EC50 (read off the curve)” value in test [5], in test [2] and in [8] were roughly 10 ng/mL, roughly 8 ng/mL and roughly 6 ng/mL, respectively. The Kd in test [1] came out at 11.2 nM; in test [6], 5.81 nM; in test [7], 10.7 nM. Further, the koff in [6] came out at 0.00135 s⁻¹; in test [7], 0.00191 s⁻¹. For the same molecule, the values for the kon in [6] and in [7] were 232000 M⁻¹ s⁻¹ and 179000 M⁻¹ s⁻¹, respectively.

B4: anti-CLDN4 (hKM3900)/anti-CD137 scFv bispecific antibody hKM3900_L-3-34-j6 (bispecific antibody)
heavy: EVQLVQSGAEVKKPGASVKISCKASGYTFTDYYMNWVRQAPGQGLEWMGDVVPNNGVPTYNQKFKGRVTITADKSTSTAYMELRSLRSEDTAVYYCARPHYYYAGRSGAMDYWGQGTLVTVSS
light (part 1 of 2): DIQLTQSPSSLSASVGDRVTITCTASSTVSSTYLHWYQQKPGKAPKLLIYSTSNLASGVPSRFSGSGSGTDYTLTISSLQPEDFATYYCHQYHRSPPTFGQGTKLEIKRTVAAPSVFIFPPSDEQLKSGTASVVCLLNNFYPREAKVQWKVDNALQSGNSQESVTEQDSKDSTYSLSSTLTLSKADYEKHKVYACEVTHQGLSSPVTKSFNRGEC
light (part 2 of 2): EVQLLESGGGLVQPGESLRLSCKAFGYTFTNHHINWVRQAPGKCLEWVGYINPYNDYTTFNDKFKDRFTLSVDKSKSTAYLQMNSLRAEDTAVYYCARTWGHWYFDLWGQGTLVTVSSGGGGSGGGGSGGGGSNIQMTQSPSSLSASVGDRVTITCRASQSVSSNLAWYQQKPGKAPKLLIYDSSTRATGVPSRFSGSGSGTDFTLTISSLQPEDFATYYCQQYNNWPPWTFGCGTKLEIKR
notes: scFv at the light chain C-terminus; not shown: human IgG1 heavy chain constant region; mutation positions by EU index; GS linker
As to B4, in test [8], the “EC50 (read off the curve)” value was roughly 4 ng/mL.

B5: anti-CLDN4 (hKM3900)/anti-CD137 scFv bispecific antibody hKM3900_tA2-32LH (bispecific antibody, human IgG1, kappa, L234A L235A)
heavy: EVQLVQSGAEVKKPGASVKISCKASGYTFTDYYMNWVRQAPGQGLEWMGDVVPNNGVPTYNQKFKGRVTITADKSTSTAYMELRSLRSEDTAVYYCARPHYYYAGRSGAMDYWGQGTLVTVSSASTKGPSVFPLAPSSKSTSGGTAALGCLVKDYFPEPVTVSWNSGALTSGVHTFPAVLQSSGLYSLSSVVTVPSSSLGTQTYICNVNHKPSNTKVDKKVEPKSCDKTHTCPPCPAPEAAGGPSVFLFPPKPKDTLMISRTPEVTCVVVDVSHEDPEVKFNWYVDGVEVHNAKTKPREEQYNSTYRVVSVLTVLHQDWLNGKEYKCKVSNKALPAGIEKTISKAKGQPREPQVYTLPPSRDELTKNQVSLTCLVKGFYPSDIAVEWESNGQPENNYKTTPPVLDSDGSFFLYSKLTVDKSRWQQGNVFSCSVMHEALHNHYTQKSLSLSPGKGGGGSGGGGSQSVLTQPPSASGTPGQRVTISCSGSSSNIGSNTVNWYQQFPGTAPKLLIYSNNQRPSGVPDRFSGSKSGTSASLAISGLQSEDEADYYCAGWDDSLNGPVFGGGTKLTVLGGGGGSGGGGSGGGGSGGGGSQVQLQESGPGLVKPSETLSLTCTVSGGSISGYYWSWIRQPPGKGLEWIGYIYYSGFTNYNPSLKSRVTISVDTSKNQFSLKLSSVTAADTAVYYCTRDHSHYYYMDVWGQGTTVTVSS
light: DIQLTQSPSSLSASVGDRVTITCTASSTVSSTYLHWYQQKPGKAPKLLIYSTSNLASGVPSRFSGSGSGTDYTLTISSLQPEDFATYYCHQYHRSPPTFGQGTKLEIKRTVAAPSVFIFPPSDEQLKSGTASVVCLLNNFYPREAKVQWKVDNALQSGNSQESVTEQDSKDSTYSLSSTLTLSKADYEKHKVYACEVTHQGLSSPVTKSFNRGEC
notes: The heavy chain entry holds the hKM3900 heavy chain (L234A, L235A, P331G), the linker and the tA2-32LH scFv
Regarding B5, the “EC50 (read off the curve)” value in test [5] was roughly 10 ng/mL; in test [2] it was roughly 8 ng/mL. For the same molecule, the results for the Kd in test [1], in test [6] and in test [7] were 10.8 nM, 5.84 nM and 6.68 nM, respectively. Besides, the koff in [6] is 0.00219 s⁻¹; in test [7], 0.00192 s⁻¹. Further, the kon was determined as 374000 M⁻¹ s⁻¹ in test [6] and 288000 M⁻¹ s⁻¹ in test [7].

B6: anti-CD137 antibody A2-32 (antibody, V domains shown)
VH: QVQLQESGPGLVKPSETLSLTCTVSGGSISGYYWSWIRQPPGKGLEWIGYIYYSGFTNYNPSLKSRVTISVDTSKNQFSLKLSSVTAADTAVYYCTRDHSHYYYMDVWGQGTTVTVSS
VL: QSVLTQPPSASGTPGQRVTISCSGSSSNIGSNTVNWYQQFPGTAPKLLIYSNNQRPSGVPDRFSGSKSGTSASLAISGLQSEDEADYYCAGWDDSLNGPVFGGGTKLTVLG
notes: Purified from a hybridoma derived from an AlivaMab mouse
For the molecule B6, the binding result in [9] and in [10] was “binds” each time.
